For two proteins, Km, Vmax and kcat results are on record in PMC4935801, “The Arabidopsis Golgi-localized GDP-L-fucose transporter is required for plant development” (Nature Communications, 2016).

What all share (experiment): proteo-liposome transport assay, LC-MS/MS
Holding throughout (type): biochemical, Arabidopsis thaliana
What all share (conditions): apparent Km, proteo-liposomes pre-loaded with 10 mM GMP, 0.5–400 μM substrate, 25 °C, pH 7.5, mean (s.e.m.) n=4

Substrate in data set [1]: C[C@@H]1O[C@H](OP(=O)(O)OP(=O)(O)OC[C@H]2O[C@@H](n3cnc4c(=O)[nH]c(N)nc43)[C@H](O)[C@@H]2O)[C@@H](O)[C@H](O)[C@@H]1O
From the text:
proteo-liposome transport assay, LC-MS/MS on GFT1

Substrate in data set [2]: Nc1nc2c(ncn2[C@@H]2O[C@H](COP(=O)(O)OP(=O)(O)O[C@H]3O[C@H](CO)[C@@H](O)[C@H](O)[C@@H]3O)[C@@H](O)[C@H]2O)c(=O)[nH]1
From the text: (§1) proteo-liposome transport assay, LC-MS/MS on GONST1

Substrate in data set [3]: C[C@@H]1O[C@H](OP(=O)(O)OP(=O)(O)OC[C@H]2O[C@@H](n3cnc4c(=O)[nH]c(N)nc43)[C@H](O)[C@@H]2O)[C@@H](O)[C@H](O)[C@@H]1O
From the text: as §1
This is another data set of the same source.

B1: GFT1 (Arabidopsis thaliana) (protein)
chain: MSSSRFDSNKQLTTSSLVIGYALCSSLLAVINKLAITYFNYPGLLTALQYLTCTVAVYLLGKSGLINHDPFTWDTAKKFLPAAIVFYLAIFTNTNLLRHANVDTFIVFRSLTPLLVAIADTVFRSQPLPSRLTFLSLVVILAGAVGYVATDSSFTLTAYSWALAYLVTITTEMVYIKHMVSNIKLNIWGLVLYNNLLSLMIAPVFWFLTGEFTEVFAALSENRGNLFEPYAFSSVAASCVFGFLISYFGFAARNAISATAFTVTGVVNKFLTVVINVLIWDKHATPVGLVCLLFTICGGVGYQQSVKLDKPIEKVSEKDSEKGEEDEELTQLVPGKLASVV
notes: yeast microsomal protein reconstituted into liposomes
What is called Vmax is the top rate of the reaction or transport when substrate is in excess. As a reminder, the kcat is the number of substrate molecules converted per active site and unit of time at saturation. On to B1, for which, in data set [1], the Km is 7 (1) μM, the maximal velocity (Vmax) worked out at 3.24 µM/min and the turnover number (kcat) worked out at 4 s⁻¹.

B2: GONST1 (Arabidopsis thaliana) (protein)
chain: MKLYEHDGVDLEDGKTVKSGGDKPIPRKIHNRALLSGLAYCISSCSMILVNKFVLSSYNFNAGIFLMLYQNFVSVIIVVGLSLMGLITTEPLTLRLMKVWFPVNVIFVGMLITSMFSLKYINVAMVTVLKNVTNVITAVGEMYLFNKQHDNRVWAALFLMIISAVSGGITDLSFNAVGYAWQIANCFLTASYSLTLRKTMDTAKQVTQSGNLNEFSMVLLNNTLSLPLGLLLSYFFNEMDYLYQTPLLRLPSFWMVMTLSGLLGLAISFTSMWFLHQTGATTYSLVGSLNKIPLSIAGIVLFNVPTSLQNSASILFGLVAGVVFARAKMREKS
notes: as for B1
Take B2: in data set [2], the Km is 17 (3) μM, the Vmax worked out at 1.44 µM/min and the kcat amounted to 1.2 s⁻¹. Further, in data set [3], the Km is on record as 76 (5) μM, the Vmax turned out to be 0.84 µM/min and the kcat was determined as 0.7 s⁻¹.
